Measured values as given in patent publication US20210130420A1, “RECOMBINANT BINDING PROTEINS TARGETING HER2 AND SERUM ALBUMIN, AND THEIR USES” (Molecular Partners AG, priority 2016, published 2021).
Values joined by “and” are separate entries in the source; they are usually repeats but may differ in a detail not shown here. Equal values may be shown once.

Tests used:
[1] = Pharmacokinetic analysis in cynomolgus monkey; type: in vivo
Description: The measurements shown in this example are the result of a half-life engineering effort as described in Example 11. Protein #21-His, Protein #23-His, and Protein #24-His were expressed and purified as described in Example 1. The pharmacokinetic properties of the proteins were assessed in cynomolgus monkey. Proteins were administered via intravenous infusion for 30 min at a target dose level of between 1 mg/kg to cynomolgus monkeys. Blood samples were collected pre-dose and again at selected time points, for example 5 min, 10 min, 0.5 hours, 1 hour, 2 hours, 4 hours, 8 hours, 12 hours, 24 hours, 48 hours, 72 hours, 96 hours, 120 hours, 144 hours, 168 hours, 192 hours, 216 hours, and 240 hours post-end of infusion (i.e. post-injection). The blood samples were allowed to stand at room temperature and were centrifuged to generate serum, followed by storage at −80° C. pending analyses. Pharmacokinetic parameters were determined using procedures well known to the person skilled in the art. Serum concentrations of proteins were determined by sandwich ELISA using a rabbit monoclonal anti-designed ankyrin repeat domain antibody as capture reagent and murine monoclonal anti-designed ankyrin repeat domain antibody as detection reagent, and using a standard curve. Pharmacokinetic parameters were determined using standard software such as Phoenix WinNonLin (Certara, Princeton, USA) or Graph Pad Prism (GraphPad Software, La Jolla, USA) and standard analyses such as non-compartmental analyses. […] Target mediated clearance is well-known to the person skilled in the art and is known from e.g. antibodies targeting HER2.
Similarly, Protein #21-His was expressed and purified as described in Example 1. The pharmacokinetic properties of the proteins were assessed in cynomolgus monkey as described above at 1 mg/kg, 5 mg/kg and 10 mg/kg.
Similar results are observed when testing Protein #21 (expressed and purified as described in Example 1). The pharmacokinetic properties of the proteins are assessed in cynomolgus monkey as described above at 1 mg/kg, 10 mg/kg and 100 mg/kg. Pharmacokinetic parameters are evaluated as described above.
For the studies in this example Protein #21-His, Protein #24-His, Protein #28-His, Protein #29-His, and Protein #30-His were prepared according to Example 1. Protein #28-His was additionally PEGylated using a 40 kDa PEG moiety (NOF Sunbright GL2-400MA) by maleimid coupling of the PEG-moiety onto the free C-terminal cysteine of Protein #28-His, followed by purification to homogeneity using standard purification methods, procedures well known to the person skilled in the art. Pharmacokinetic analyses in mouse or cynomolgus monkey were performed as described in Examples 8 and 9.

[2] = molecular target: human serum albumin (Homo sapiens, UniProt P02768); assay: Size exclusion chromatography coupled to static light scattering with human serum albumin; type: binding; conditions: 30 μM Protein #21, 60 μM human serum albumin, 1:2 mixture in PBS
Description: Protein #21 was expressed and purified as described in Example 1. Size exclusion chromatography coupled to static light scattering (Superdex 200 10/300GL (GE Healthcare), Agilent 1200 (Life Technologies), Wyatt Optilab Trex (RI) and MiniDawnTreos (MALS)) was performed using 30 μM Protein #21, 60 μM human serum albumin (CSL Behring 20% solution was used to purify the monomeric fraction of human serum albumin by size exclusion chromatography on a Superdex 200 26/60 column (GE Healthcare)), or a 1:2 mixture of the two, in PBS.

[3] = Thermal stability by circular dichroism; type: physicochemical; conditions: 0.4 μM in PBS
Description: Protein #21 was expressed and purified as described in Example 1. Thermal stability was evaluated using circular dichroism using a Jasco J-815 CD spectrometer in a nitrogen atmosphere (3 L/min). Protein #21 at 0.4 μM in PBS in 117.100F-QS cuvettes (Hellma, d=1 cm) with in-solution temperature control sensors were measured, heating from 20° C. to 95° C. (below 45° C.: +3° C./min; above 45° C.: +1° C./min recording the signal at 222 nm, a 1 min delay at 95° C. and a subsequent cooling phase (inverted program compared to heating phase). The CD signal was normalized to mean residual ellipticity (MRE) with the unit deg cm2 dmol-1. Additionally, the far-UV CD spectrum was recorded.

[4] = test system: AKT; assay: Phospho-proteome mass spectrometry of BT474 cells; type: cell-based, human; conditions: 100 nM, 18 hours
Excerpt: (§1) Protein #21 was expressed and purified as described in Example 1. […] Cells were then subjected to a phospho-proteome mass-spectrometry analysis as described by Britton, D., et al. (Britton, D., Zen, Y., Quaglia, A., Selzer, S., Mitra, VI., Lössner, C., Jung, S., Bohm, G., Schmid, P., Prefot, P., Hoehle, C., Koncarevic, S., Gee, J., Nicholson, R., Ward, M., Castellano, L., Stebbing, J., Zucht, H. D., Sarker, D., Heaton, N., and Pike, I., 2014. PLOS One 9 (3), e90948).

[5] = test system: RAF; assay: Phospho-proteome mass spectrometry of BT474 cells; type: cell-based, human; conditions: 100 nM, 18 hours
Excerpt: as §1

[6] = test system: RPS6KB1/S6 Kinase; assay: Phospho-proteome mass spectrometry of BT474 cells; type: cell-based, human; conditions: 100 nM, 18 hours
Excerpt: as §1

[7] = test system: mTOR; assay: Phospho-proteome mass spectrometry of BT474 cells; type: cell-based, human; conditions: 100 nM, 18 hours
Excerpt: as §1

[8] = test system: AKT; assay: Phospho-site specific ELISA, BT474 cells; type: cell-based, human; conditions: 100 nM, 18 hours
[9] = test system: HER3; assay: Phosphorylation state ELISA, BT474 cells; type: cell-based, human; conditions: 100 nM, 18 hours
[10] = test system: Foxo3a protein; assay: Cellular levels of Foxo3a protein in BT474 cells; type: cell-based, human; conditions: compared to an exposure to PBS only
Excerpt: as §1
It is known to the practitioner in the art, that Akt1 phosphorylates Foxo3a, resulting in the degradation of Foxo3a and promotion of cell survival. Inhibition of Act phosphorylation leads to stabilization of Foxo3a and thus increase in Foxo3a levels. At increased levels Foxo3a can translocate to the nucleus and induce apoptosis.

B1: Protein #21: SEQ ID NO: 21; HER2 binding domains (SEQ ID NOs: 16, 17) flanked by two serum albumin binding domains (SEQ ID NO: 14), SEQ ID NO: 9 linkers (protein)
chain: GSDLGKKLLEAARAGQDDEVRELLKAGADVNAKDYFSHTPLHLAARNGHLKIVEVLLKAGADVNAKDFAGKTPLHLAANEGHLEIVEVLLKAGADVNAQDIFGKTPADIAADAGHEDIAEVLQKAAGSPTPTPTTPTPTPTTPTPTPTGSDLGIKLLFAAAKGQDDEVRELLKAGADVNAKDFQGVTPLHIAAQSGHLEIVEVLLKAGADVNAKDVTGDTPLHLAAQHGHLEIVEVLLKAGADVNAQDERGWTPADLAADWGHEDIAEVLQKAAGSPTPTPTTPTPTPTTPTPTPTGSDLGKKLLEAARAGQDDEVRELLKAGADVNAKDEYGLTPLYLATAHGHLEIVEVLLKAGADVNAVDAIGFTPLHLAAFIGHLEIAEVLLKAGADVNAQDKFGKTPADIAAGAGNEDIAEVLQKAAGSPTPTPTTPTPTPTTPTPTPTGSDLGKKLLEAARAGQDDEVRELLKAGADVNAKDYFSHTPLHLAARNGHLKIVEVLLKAGADVNAKDFAGKTPLHLAANEGHLEIVEVLLKAGADVNAQDIFGKTPADIAADAGHEDIAEVLQKAA
modifications: Protein comprising four designed ankyrin repeat domains
dose dependence of the terminal half-life ([1]; 1 mg/kg, 10 mg/kg and 100 mg/kg): dose dependent increase | pharmacokinetic properties compared to PEGylated Protein #28 ([1]; 5 mg/kg doses): markedly improved pharmacokinetic properties | terminal half-life ([1]; 100 mg/kg): 109.5 h and 130.6 h | simultaneous binding of two serum albumin molecules [2]: can bind two serum albumin molecules simultaneously | temperature above which loss of signal at 222 nm is detected [3]: above 78 °C | AKT S124 phosphorylation [4]: 0.99 fold change to PBS | AKT S129 phosphorylation [4]: 0.93 fold change to PBS | RAF S642 phosphorylation [5]: 0.81 fold change to PBS | RAF T631/T638/T640/T641/S642 phosphorylation [5]: 0.48 fold change to PBS | RPS6KB1/S6Kinase S441/T444/S447 phosphorylation [6]: 0.63 fold change to PBS | RPS6KB1/S6Kinase T444/S447 phosphorylation [6]: 0.92 fold change to PBS | mTOR S2448/S2454 phosphorylation [7]: 0.79 fold change to PBS | AKT S473 phosphorylation [8]: 0.16 fold change to PBS | HER3 Pan-Phospho-Tyrosine [9]: 0.45 fold change to PBS | increase of cellular levels of Foxo3a protein [10]: 1.88 fold
